Measured values from the nanobody polyreactivity screen of Harvey et al. (2022).

Experiment: yeast display, Sf9 membrane polyspecificity reagent, FACS + sequencing; frameworks hold sequencing errors
Method in brief: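 Synthetic nanobody libraries on Saccharomyces cerevisiae BJ5465 were galactose-induced for 36–48 hours, stained 1 hour at 4 °C with 10% biotinylated, detergent-solubilized Sf9 membrane reagent and enriched on streptavidin microbeads. FACS then separated cells into low and high (top ~1%) gates by anti-HA (expression) and streptavidin (reagent binding) fluorescence. Genes were colony-PCR amplified, MiSeq 2 × 250 sequenced and CDR-length filtered. A clone's polyreactivity label is that of its gate of origin.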

Sequence	polyreactivity (PSR sort gate)
QVQLVESGGGLVQAGGSLRLSCAASGRIFRRYVMGWYRPAPGKERELVATINSNGGSTYYADSVKGRFTISRDNAKNTVYLQMNSLKPEDTAVYYCAAYYRWIGGRYTPYYYWGQATQVTVSS	high polyreactivity
QVQLVESGGGLVQAGGSLRLSCAASGRIFRSNAKGWYRQAPRKERELVAAISGGGSTYYADSVKGRFTISRDNAKNTVYLQMNSLKPEDTAVYYCAAGRHLAYWSRDYYYWGQGTQVTVSS	high polyreactivity
QVQLVESGGGLVQAGGSLRLSCAASGRIFRSNAMGWYRQAPGKERELVAAISQRGGSTYYADSVKGRFTISRDNAKNTVYLQINSLKPEDTAVYYCNARGRYYSGDNWGQGTQVTVSS	high polyreactivity
QVQLVESGGGLVQAGGSLRLSCAASGRIFRSNAMGWYRQAPGKERELVATISRRGGSTYYADSVKGRFTISRDNAKNTVYLQMNSLKPEDTAVYYCNTRNSGSLDLYNTMDYWGQGTQVTVSS	high polyreactivity
QVQLVESGGGLVQAGGSLRLSCAASGRIFRSNAMGWYRQAPWKERELVATITSSGGRTYYADSVKGRFTISRDNAKNTVYLQMNSLKPEDTAVYYCIAQQRTRGQKAQWVRDEYWGQGTQVTVSS	low polyreactivity
QVQLVESGGGLVQAGGSLRLSCAASGRIFRSYAMGGYRQAPGKERELVAAMTSGGSTNYADSVKGRFTISRDNAKNTVYLQMNSLKPEDTAVYYCNADRWKSGYWRYDYWGQGTQVTVSS	low polyreactivity
QVQLVESGGGLVQAGGSLRLSCAASGRIFRSYAMGWYRQAPGKERELVAAISYSGGSTYYADSVKGRFTISRDNAKNTVYLQMNSLKPEDTAVYYCAALPGERKYIYYGYDYWGQGTQVTVSS	high polyreactivity
QVQLVESGGGLVQAGGSLRLSCAASGRIFRTNAMGWYRQAPGKDRELVAAISRSGGSTYYADSVKGRFTISRDNAKNTVYLQMNSLKPEDTAVYYCATRVGKILTTKYGYWGQGTQVTVSS	high polyreactivity
QVQLVESGGGLVQAGGSLRLSCAASGRIFRTYAMGWSRQAPGKERELVAAISGSGGRTYYADSVKGRFTISRDNAKNTVYLQMNSLKPEDTAVYYCAKYVSIVRYGSTTNYDYWGQGTQVTVSS	high polyreactivity
QVQLVESGGGLVQAGGSLRLSCAASGRIFRTYAMGWYRPAPGKERELVAAISGSGGRTYYADSVKGRFTISRDNAKNTVYLQMNSLKPEDTAVYYCANYVSIVRYGSTTNYDYWGQGTQVTVSS	high polyreactivity
QVQLVESGGGLVQAGGSLRLSCAASGRIFRVNAMGWYRQAPGKDREFVAAITASSGRTSYADSVKGRFTISRDNAQNTVYLQMNSLKPEDTAVYYCNAAVSQFSHRWRRRITFDYWGQGTQVTVSS	low polyreactivity
QVQLVESGGGLVQAGGSLRLSCAASGRIFRVNAMGWYRQAPGKERELVASITKSTGSTYYADSVKGRFTISRDNAKNTVYLQMNSLKPEDTAVYYCAKAASYPVRAFYYWGQGTQVTVSS	high polyreactivity
QVQLVESGGGLVQAGGSLRLSCAASGRIFRVNAMGWYRQAPGKERELVATITGSGGSTYYADSVKGRFTISRDNAKNTVHLQMNSLKPEDTAVYYCAVDRGRGSTYKYDYWGQGTQVTVSS	low polyreactivity
QVQLVESGGGLVQAGGSLRLSCAASGRIFRVYAMGWSRQAPGKERELVAAIRWTGGSTYYADSVKGRFKISRDNAKNTVYIQIHSLKAEDTAVSYCAAGRYYSDGSRTIYDYWGQGTQVTGSS	high polyreactivity
QVQLVESGGGLVQAGGSLRLSCAASGRIFRVYAMGWYRQAPGKERELVAAISSSGSSTYYADSVKGRFTISRDNAKYTVYLQMNSLKPEDTAVYYCAARGYDISSRYDYWGQGTQVTVSS	high polyreactivity
QVQLVESGGGLVQAGGSLRLSCAASGRIFRWYAMGWYRPAPGKERELVAAISRSGTSTYYADSVKGRFTISRDNAKNTVYLQMNSLKPEDTAVYDCAADRTGRIVLSPTDEMDYWGQGTQVTVSS	low polyreactivity
QVQLVESGGGLVQAGGSLRLSCAASGRIFRYNAMGGYRQAPGKERELVAAITWRGGSTYYADSVKGRFTISRDNAKNTVYLQMNSLKPEDTAVYYCNKVDSLTFEYDYWGQGTQVTVSS	high polyreactivity
QVQLVESGGGLVQAGGSLRLSCAASGRIFRYNAMGLYRQAPGKERELVAAISRSGGSTYYADSVKGRFTISRDNAKNTVYLQMNSLKPEDTAVYYCAVRRDGSGGNLDYWGQGTQVTVSS	high polyreactivity
QVQLVESGGGLVQAGGSLRLSCAASGRIFRYNAMGWYRQAPGKEREFVAAISWSGDRTYYADSVKGRFTISRDNAKNTGYLQMNSLKTEDTAVYYCADVPATSYPRRYVYAYYYWGQGTQVTVSS	high polyreactivity
QVQLVESGGGLVQAGGSLRLSCAASGRIFRYNAMGWYRQAPGKERELVAAISSGGSTNYADSVKGRFTTSRDNAKNTVYLQMNSLKPEDTAVYYCNAESVHRYPGWGYDYWGQGTQVTVSS	low polyreactivity

Sequence	polyreactivity (PSR sort gate)
QVQLVESGGGLVQAGGSLRLSCAASGRIFRYNAMGWYRQAPGKERELVAALTSGGSTNYADSVKGRFTISRDNAKNTVYLQMNSLKPEDTAVYYCAVTGYRPYAYRRRYPYDYWGQGTQVTVSS	high polyreactivity
QVQLVESGGGLVQAGGSLRLSCAASGRIFRYNAMGWYRQPPGKEREFVARISVITGRTYYADSVKGRFTISRDNAKNTVYLQMNSLKPEDTAVYFCAADAGYNYRYLLRGDYWGQGTQVTVSS	high polyreactivity
QVQLVESGGGLVQAGGSLRLSCAASGRIFRYNTMGRNRHAPGKEREFVAAISYRGASTYYADSVKGRFTISRDNAKNNVYLQMNSLKPEDTAVYYCAAVTISKGFYPYDYWGQGTQVSVSS	high polyreactivity
QVQLVESGGGLVQAGGSLRLSCAASGRIFRYSAMGWYRQAPGKERELVAAISSDGSTDYADSVKGRFTISRDNAKNTVYLQMNSLKPEDTAVYYCAASVVSYGHDYWGQGTQVTVSS	low polyreactivity
QVQLVESGGGLVQAGGSLRLSCAASGRIFRYYAMGWYRQAPGKEREFVAAITYIGGSTYYADSVKGRFTISRDNAKNTVYLQMNSLKPEDTAVYWGQGTQVTVSS	low polyreactivity
QVQLVESGGGLVQAGGSLRLSCAASGRIFRYYAMGWYRQAPGKERELVAAIRSDDSTNYADSVKGRFTISRDNAKNTVYLQMNSLKPEDTAVYYCAAVKAYYGGSRSYYYWGQGTQVTVSS	high polyreactivity
QVQLVESGGGLVQAGGSLRLSCAASGRIFRYYAMGWYRQAPGKERELVAAISGGRTYYADSVKGRFTISRDNAKNTVYLQMNSLKPEDTAVYYCNAGGIVWTGYWYDYDYWGQGTQVTVSS	high polyreactivity
QVQLVESGGGLVQAGGSLRLSCAASGRIFRYYAMGWYRQAPGKERELVAAITAGGGTTYYADSVKGRFTISSDNAKNTVYLQMNSLKPEDTAVYYCAKDGRYYSHYNYWGQGTQVTVSS	high polyreactivity
QVQLVESGGGLVQAGGSLRLSCAASGRIFRYYAMGWYRQAPGKERELVAAITQRGGSTYADSVKGRFTISRDNANNTVYLQMNSLKPEDTAVFYCAYRGSFLYDYWGQGTQVTVSS	low polyreactivity
QVQLVESGGGLVQAGGSLRLSCAASGRIFRYYAMGWYRQAPGKERELVARITWSGGRTYYADSVKGRFTISRDNAKNTVYLQMNSLKPEDTAVYYCNARATSGGDYWGQGTQVTVSS	high polyreactivity
QVQLVESGGGLVQAGGSLRLSCAASGRIFRYYAMGWYRQAPGKERELVASISNGGGTYYADSVKGRFTISRDNAKNTVYLQMNSLKPEDTAVYYCNARKWSQYIVPLRDYWGQGTQVTVSS	high polyreactivity
QVQLVESGGGLVQAGGSLRLSCAASGRIFRYYAMGWYRQAPGKERELVATISRSGGSTFYADSVKGRFTISRDNAKNTVYLQMNSLKPEDTAVYYCNARYQTGGYGYWGQGTQVTVSS	high polyreactivity
QVQLVESGGGLVQAGGSLRLSCAASGRIFRYYAMGWYRQAPGKERELVAVINWSGGSTYYADSVKGRFTISRDNAKNTVYFQMNSLKPEDTAVYYCNVYSVYPQFNYWGQGTQVTVSS	high polyreactivity
QVQLVESGGGLVQAGGSLRLSCAASGRIFRYYAMGWYRQAPGKETELVAAINWSGGSTYYADSVKGRFTISRDNAKNTVYLQMNSLKPEDTAVYYCNRRAYIRYDSSSLDYWGQGTQVTVSS	low polyreactivity
QVQLVESGGGLVQAGGSLRLSCAASGRIFRYYAMGWYRQAPGQERELVAAISWRGGITNYADSVKGRFTISRDNAKNTVYLQMNSLKPEDTAVYYCNRVQGPDSQAKTSMYYWGQGTQVTVSS	high polyreactivity
QVQLVESGGGLVQAGGSLRLSCAASGRIFRYYAMGWYRQPPGKERELVAAISSSGGRTYYADSVKGRFTISRDNAKNTVYLQMNSLKPEDTAVYYCAADAPNFGLYRDKDYDYWGQGTQVTVSS	high polyreactivity
QVQLVESGGGLVQAGGSLRLSCAASGRIFRYYTMGWYRQAPGKERELVAAITWSGGSTYYADSVKGRFTISRDNAKNTVYLQMNSLKPEDTAVYYCAVVYSPSMDYWGQGTQVTVSS	high polyreactivity
QVQLVESGGGLVQAGGSLRLSCAASGRIFRYYVMGWYRQAPGKERELVAAITSGGSTYYADSVKGRFTISRDNAKNTVYLQMNSLKPEDTAVYYCAAETTLPIFYYTQVNYWGQGTQVTVSS	low polyreactivity
QVQLVESGGGLVQAGGSLRLSCAASGRIFRYYVMGWYRQAPGKERELVAAITSGTSTNYADSVKGRFTISRDNAKNTVYLQMNSLKPEDTAVYYCAFRSPRGGRTRFNSNYWGQGTQVTVSS	high polyreactivity
QVQLVESGGGLVQAGGSLRLSCAASGRIFSAYTMGWYRQAPGNERELVAAIRWSGDSTYYADSVKGRFTISRDNAKNTVYLQKNSLKPEDTAVYYCAARDRWFPRYSSRYYSWGQGTQVSVSS	high polyreactivity
